{
  "source": "IntAct's records for PubMed 10488108",
  "parents": {"B1": {"name": "E3 ubiquitin-protein ligase COP1 (Arabidopsis thaliana (Mouse-ear cress)), P43254 (parent)", "chain": "MEEISTDPVVPAVKPDPRTSSVGEGANRHENDDGGSGGSEIGAPDLDKDLLCPICMQIIKDAFLTACGHSFCYMCIITHLRNKSDCPCCSQHLTNNQLYPNFLLDKLLKKTSARHVSKTASPLDQFREALQRGCDVSIKEVDNLLTLLAERKRKMEQEEAERNMQILLDFLHCLRKQKVDELNEVQTDLQYIKEDINAVERHRIDLYRARDRYSVKLRMLGDDPSTRNAWPHEKNQIGFNSNSLSIRGGNFVGNYQNKKVEGKAQGSSHGLPKKDALSGSDSQSLNQSTVSMARKKRIHAQFNDLQECYLQKRRQLADQPNSKQENDKSVVRREGYSNGLADFQSVLTTFTRYSRLRVIAEIRHGDIFHSANIVSSIEFDRDDELFATAGVSRCIKVFDFSSVVNEPADMQCPIVEMSTRSKLSCLSWNKHEKNHIASSDYEGIVTVWDVTTRQSLMEYEEHEKRAWSVDFSRTEPSMLVSGSDDCKVKVWCTRQEASVINIDMKANICCVKYNPGSSNYIAVGSADHHIHYYDLRNISQPLHVFSGHKKAVSYVKFLSNNELASASTDSTLRLWDVKDNLPVRTFRGHTNEKNFVGLTVNSEYLACGSETNEVYVYHKEITRPVTSHRFGSPDMDDAEEEAGSYFISAVCWKSDSPTMLTANSQGTIKVLVLAA", "partner": "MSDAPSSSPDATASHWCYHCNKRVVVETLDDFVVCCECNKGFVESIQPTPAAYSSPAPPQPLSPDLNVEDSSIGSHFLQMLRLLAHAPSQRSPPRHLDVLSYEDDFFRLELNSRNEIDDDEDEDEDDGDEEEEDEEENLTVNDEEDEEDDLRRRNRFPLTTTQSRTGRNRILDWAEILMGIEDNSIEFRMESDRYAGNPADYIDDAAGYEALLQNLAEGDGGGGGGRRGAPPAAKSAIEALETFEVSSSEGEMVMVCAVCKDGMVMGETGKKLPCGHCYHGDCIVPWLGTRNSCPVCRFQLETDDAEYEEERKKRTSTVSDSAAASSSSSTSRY"}, "B2": {"name": "E3 ubiquitin-protein ligase CIP8 (Arabidopsis thaliana (Mouse-ear cress)), Q9SPL2 (parent)", "chain": "B1 partner", "partner": "B1 chain"}},
  "data": [
    {"variants_of": "B1", "conditions": "with cip8_arath CIP8, Q9SPL2", "values": [
      {"variant": "C67A;H69A;C72A;C75A", "effect of a mutation on the interaction": "disrupting interaction"}
    ]},
    {"variants_of": "B2", "conditions": "with cop1_arath COP1, P43254", "values": [
      {"variant": "C275A;H277A;H280A;C283A", "effect of a mutation on the interaction": "disrupting interaction"}
    ]}
  ]
}
